We go through one substance from patent US20160303245A1, “FATTY ACID DERIVATIVES OF DIMERIC INHIBITORS OF PSD-95” (UNIVERSITY OF COPENHAGEN, priority 2013, published 2016).

The target in experiment [1] is Human Serum Albumin (human) (UniProt P02768). As to the kind of experiment: calculated from KD(HSA) at 150 µM HSA (equation 2).
Experiment [2] shares this target. Description: Transil XL HSA binding kit (immobilized HSA), unbound compound by RP-HPLC.
Experiment [3] has the same target. As to the kind of experiment: calculated from KD at 588 µM HSA (equation 2).

Turning to UCCB01-144 (peptide), in experiment [1], the fu (%), fraction unbound was 67.9%. Further, in experiment [2], the dissociation constant Kd – broadly, the free concentration of one partner at which half of the binding sites on the other are occupied at equilibrium, for simple one-to-one binding – came out at 318 µM. The fb (%), fraction bound to HSA in experiment [3] is 65.3%.
